For 41 variants, self-cleavage results are on record in the RNAGym collection of RNA variant scans (doi:10.7554/elife.90254).

B1: OR4K15 (parent)
chain: GUUAACGGUCAUAGGCCAUGGAAACUAGGAGCACCAUUUCGCUGCCAGUGAAGAAAUGAACAAAGAAAAUCUGGGCCAGGCAGGCAUCAAAAGAAAUAGUCUUGCGCUCAACCAGAAAGUCUGUAAUCAUUUUAAGGGUA

The variants in the data set derive from B1. Description: self-cleavage, relative activity (ratio to wild type); higher = more cleavage; in vitro, sequencing; the parent is a self-cleaving ribozyme.
Turning to GUUAACGGUCAUAGGCCAUGGAAACUAGGAGCACCAUUUCGCUGCCAGUGAAGAAAUGAACAAAGAAAAUCUGGGCCAGGCAGGCUUCAAAAGAAAUAGUCUUGCGCUCAACCAGAAAGUCUGUAAACAUUUUAAGGGUA, the self-cleavage was 2.92. For GUUAACGGUCAUAGGCCAUGGAAACUAGGAGCACCAUUUCGCUGCCAGUGAAGAAAUGAACAAAGAAAAUCUGGGCCAGGCAGGCUUCAAAAGAAAUAGCCUUGCGCUCAACCAGAAAGUCUGUAAUCAUUUUAAGGGUA the value was 2.52. GUUAACGGUCAUAGGCCAUGGAAACUAGGAGCACCAUUUCGCUGCCAGUGAAGAAAUGAACAAAGAAAAUCUGGGCCAGGCAGGCUUCAAAAGAAAUGGUCUUGCGCUCAACCAGAAAGUCUGUAAUCAUUUUAAGGGUA: the self-cleavage was 0.37. To GUUAACGGUCAUAGGCCAUGGAAACUAGGAGCACCAUUUCGCUGCCAGUGAAGAAAUGAACAAAGAAAAUCUGGGCCAGGCAGGCUUCAAAAGAAAUAGUCUUGCGCCCAACCAGAAAGUCUGUAAUCAUUUUAAGGGUA belongs 0.02; to GUUAACGGUCAUAGGCCAUGGAAACUAGGAGCACCAUUUCGCUGCCAGUGAAGAAAUGAACAAAGAAAAUCUGGGCCAGGCAGGCAACAAAAGAAAUAGUCUUGCGCUCAACCAGAAAGUCUGUGAUCAUUUUAAGGGUA, 0.68.

For the variant GUUAACGGUCAUAGGCCAUGGAAACUAGGAGCACCAUUUCGCUGCCAGUGAAGAAAUGAACAAAGAAAAUCUGGGCCAGGCAGGCUUCAAAAGGAAUAGUCUUGCGCUCAACCAGAAAGUCUGUAAUCAUUUUAAGGGUA, the self-cleavage is 1.72.

For GUUAACGGUCAUAGGCCAUGGAAACUAGGAGCACCAUUUCGCUGCCAGUGAAGAAAUGAACAAAGAAAAUCUGGGCCAGGCAGGCUUCAAAAGAAAUAGUCAUGCGCUCAACCAGAAAGUCUGUAAUCAUUUUAAGGGUA, the self-cleavage is 1.36. For GUUAACGGUCAUAGGCCAUGGAAACUAGGAGCACCAUUUCGCUGCCAGUGAAGAAAUGAACAAAGAAAAUCUGGGCCAGGCAGGCAACAAAAGAAAUAGUCUUGCGCUCAACCAGAGAGUCUGUAAUCAUUUUAAGGGUA the value was 1.12; for GUUAACGGUCAUAGGCCAUGGAAACUAGGAGCACCAUUUCGCUGCCAGUGAAGAAAUGAACAAAGAAAAUCUGGGCCAGGCAGGCUUCAAAAGAAAUAGUCUUGCGCUCAACCAGAAAGUCUGUAAUCAUUUUAAGGGAA, 1.53; for GUUAACGGUCAUAGGCCAUGGAAACUAGGAGCACCAUUUCGCUGCCAGUGAAGAAAUGAACAAAGAAAAUCUGGGCCAGGCAGGCUUCAAAAGAAAUAGUCUUGCGCUCAACCAGAAAGUCUGUAAUCAUUUUAAGGGUG, 1.62.

As to GUUAACGGUCAUAGGCCAUGGAAACUAGGAGCACCAUUUCGCUGCCAGUGAAGAAAUGAACAAAGAAAAUCUGGGCCAGGCAGGCGUCAAAAGAAAUAGUCUUGCGCUCAACCAGAAAGUCCGUAAUCAUUUUAAGGGUA, the self-cleavage turned out to be 0.88. To GUUAACGGUCAUAGGCCAUGGAAACUAGGAGCACCAUUUCGCUGCCAGUGAAGAAAUGAACAAAGAAAAUCUGGGCCAGGCAGGCUUCAAAAGAAAUAGUCUUGCGCUCAACCAGAAAGUCUGUAAUCACUUUAAGGGUA belongs 1.44.

In the case of GUUAACGGUCAUAGGCCAUGGAAACUAGGAGCACCAUUUCGCUGCCAGUGAAGAAAUGAACAAAGAAAAUCUGGGCCAGGCAGGCUUCAAAAGAAAUAGUCUUGCGCUCAACCAGAUAGUCUGUAAUCAUUUUAAGGGUA, the self-cleavage was found to be 1.56. For GUUAACGGUCAUAGGCCAUGGAAACUAGGAGCACCAUUUCGCUGCCAGUGAAGAAAUGAACAAAGAAAAUCUGGGCCAGGCAGGCGUCAAAAGAAAUAGUCUUGCGCUCAACCAGAAAGUCUGAAAUCAUUUUAAGGGUA the value was 0.4; for GUUAACGGUCAUAGGCCAUGGAAACUAGGAGCACCAUUUCGCUGCCAGUGAAGAAAUGAACAAAGAAAAUCUGGGCCAGGCAGGCAACAGAAGAAAUAGUCUUGCGCUCAACCAGAAAGUCUGUAAUCAUUUUAAGGGUA, 1.29.

As for GUUAACGGUCAUAGGCCAUGGAAACUAGGAGCACCAUUUCGCUGCCAGUGAAGAAAUGAACAAAGAAAAUCUGGGCCAGGCAGGCAACAAAAGAAAUAGUCUUGCGCUCAACCAGAAAGUCUGUAAUCCUUUUAAGGGUA, the self-cleavage worked out at 0.8. Regarding GUUAACGGUCAUAGGCCAUGGAAACUAGGAGCACCAUUUCGCUGCCAGUGAAGAAAUGAACAAAGAAAAUCUGGGCCAGGCAGGCAACAAAAGAAAUAGUCUUGCGCUCGACCAGAAAGUCUGUAAUCAUUUUAAGGGUA, the self-cleavage was 0.15. To GUUAACGGUCAUAGGCCAUGGAAACUAGGAGCACCAUUUCGCUGCCAGUGAAGAAAUGAACAAAGAAAAUCUGGGCCAGGCAGGCAACAAAAGAAAUAGUCUUGCGCUCCACCAGAAAGUCUGUAAUCAUUUUAAGGGUA belongs 0.25. For GUUAACGGUCAUAGGCCAUGGAAACUAGGAGCACCAUUUCGCUGCCAGUGAAGAAAUGAACAAAGAAAAUCUGGGCCAGGCAGGCUUCCAAAGAAAUAGUCUUGCGCUCAACCAGAAAGUCUGUAAUCAUUUUAAGGGUA, the self-cleavage was 1.51. In the case of GUUAACGGUCAUAGGCCAUGGAAACUAGGAGCACCAUUUCGCUGCCAGUGAAGAAAUGAACAAAGAAAAUCUGGGCCAGGCAGGCUUCAAAAGAAAUAGUCUUGCGCUCAACCAGAAAGUCUGUAAUCAUUUUAAGGGUA, the self-cleavage came to 1.77. In the case of GUUAACGGUCAUAGGCCAUGGAAACUAGGAGCACCAUUUCGCUGCCAGUGAAGAAAUGAACAAAGAAAAUCUGGGCCAGGCAGGCUUCAAAAGAAAUAGUCUUGCGCUCAACCAGAAAGUCUGUAGUCAUUUUAAGGGUA, the self-cleavage stood at 1.63. For GUUAACGGUCAUAGGCCAUGGAAACUAGGAGCACCAUUUCGCUGCCAGUGAAGAAAUGAACAAAGAAAAUCUGGGCCAGGCAGGCUUCAAAAGAAAUAGUCUUGCGCUCAACCAGAAAGCCUGUAAUCAUUUUAAGGGUA the value was 1.11; for GUUAACGGUCAUAGGCCAUGGAAACUAGGAGCACCAUUUCGCUGCCAGUGAAGAAAUGAACAAAGAAAAUCUGGGCCAGGCAGGCUUCAAAAGAAAUAGUCUUGCGCUCAACCAGAAAGUCUGAAAUCAUUUUAAGGGUA, 1.02. For GUUAACGGUCAUAGGCCAUGGAAACUAGGAGCACCAUUUCGCUGCCAGUGAAGAAAUGAACAAAGAAAAUCUGGGCCAGGCAGGCUUCAAAAGAAAUAGUCUUGCGCUCAACCAGAAAGUCCGUAAUCAUUUUAAGGGUA the value was 1.74.

In the case of GUUAACGGUCAUAGGCCAUGGAAACUAGGAGCACCAUUUCGCUGCCAGUGAAGAAAUGAACAAAGAAAAUCUGGGCCAGGCAGGCAACAAAAGAAAUAGUCUUGCGCUCAACCAGAAAGUCUGUAAUCAUUUUAAGGGUA, the self-cleavage amounted to 1.65.

With GUUAACGGUCAUAGGCCAUGGAAACUAGGAGCACCAUUUCGCUGCCAGUGAAGAAAUGAACAAAGAAAAUCUGGGCCAGGCAGGCAACAAAAGGAAUAGUCUUGCGCUCAACCAGAAAGUCUGUAAUCAUUUUAAGGGUA, the self-cleavage came to 1.64. Turning to GUUAACGGUCAUAGGCCAUGGAAACUAGGAGCACCAUUUCGCUGCCAGUGAAGAAAUGAACAAAGAAAAUCUGGGCCAGGCAGGCUUCAAAAGAAAUAGUCUUGCGCUCAAUCAGAAAGUCUGUAAUCAUUUUAAGGGUA, the self-cleavage is 0.02. To GUUAACGGUCAUAGGCCAUGGAAACUAGGAGCACCAUUUCGCUGCCAGUGAAGAAAUGAACAAAGAAAAUCUGGGCCAGGCAGGCAACAAAAGAGAUAGUCUUGCGCUCAACCAGAAAGUCUGUAAUCAUUUUAAGGGUA belongs 0.76; to GUUAACGGUCAUAGGCCAUGGAAACUAGGAGCACCAUUUCGCUGCCAGUGAAGAAAUGAACAAAGAAAAUCUGGGCCAGGCAGGCAACCAAAGAAAUAGUCUUGCGCUCAACCAGAAAGUCUGUAAUCAUUUUAAGGGUA, 0.99. To GUUAACGGUCAUAGGCCAUGGAAACUAGGAGCACCAUUUCGCUGCCAGUGAAGAAAUGAACAAAGAAAAUCUGGGCCAGGCAGGCUUCAAAAGAAAUAGUAUUGCGCUCAACCAGAAAGUCUGUAAUCAUUUUAAGGGUA belongs 0.09. Take GUUAACGGUCAUAGGCCAUGGAAACUAGGAGCACCAUUUCGCUGCCAGUGAAGAAAUGAACAAAGAAAAUCUGGGCCAGGCAGGCAACAAAAGAAAUAGUCUUGCGCUCAACCAGGAAGUCUGUAAUCAUUUUAAGGGUA: the self-cleavage was found to be 0.28. To GUUAACGGUCAUAGGCCAUGGAAACUAGGAGCACCAUUUCGCUGCCAGUGAAGAAAUGAACAAAGAAAAUCUGGGCCAGGCAGGCUCCAAAAGAAAUAGUCUUGCGCUCAACCAGAAAGUCUGUAAUCAUUUUAAGGGUA belongs 1.51; to GUUAACGGUCAUAGGCCAUGGAAACUAGGAGCACCAUUUCGCUGCCAGUGAAGAAAUGAACAAAGAAAAUCUGGGCCAGGCAGGCGUCAAAAGAAAUAGUCUUGCGCUCAACCAGAAAGUCUGUAAUCAUUUCAAGGGUA, 2.05. As for GUUAACGGUCAUAGGCCAUGGAAACUAGGAGCACCAUUUCGCUGCCAGUGAAGAAAUGAACAAAGAAAAUCUGGGCCAGGCAGGCAACAAAAGAAAUAGUCUUGCGCUCAACCAGAAAGUCUGUAGUCAUUUUAAGGGUA, the self-cleavage stood at 1.66.

In the case of GUUAACGGUCAUAGGCCAUGGAAACUAGGAGCACCAUUUCGCUGCCAGUGAAGAAAUGAACAAAGAAAAUCUGGGCCAGGCAGGCAACAAAGGAAAUAGUCUUGCGCUCAACCAGAAAGUCUGUAAUCAUUUUAAGGGUA, the self-cleavage turned out to be 2.61. For GUUAACGGUCAUAGGCCAUGGAAACUAGGAGCACCAUUUCGCUGCCAGUGAAGAAAUGAACAAAGAAAAUCUGGGCCAGGCAGGCAACAAAAGAAAUAGUCUUGCGCUCAACCAGAAGGUCUGUAAUCAUUUUAAGGGUA the value was 1.26.

With GUUAACGGUCAUAGGCCAUGGAAACUAGGAGCACCAUUUCGCUGCCAGUGAAGAAAUGAACAAAGAAAAUCUGGGCCAGGCAGGCUUCAAAAGAAAUAGUCUUGCGCUCAACCAGAAAGUCUGUAAUCGUUUUAAGGGUA, the self-cleavage was determined as 2.26.

For GUUAACGGUCAUAGGCCAUGGAAACUAGGAGCACCAUUUCGCUGCCAGUGAAGAAAUGAACAAAGAAAAUCUGGGCCAGGCAGGCUUCAAAAGAAAUAGUCUUGCGCUCAACCAGAAAGUCUGUAAUCUUUUUAAGGGUA, the self-cleavage was 1.13. To GUUAACGGUCAUAGGCCAUGGAAACUAGGAGCACCAUUUCGCUGCCAGUGAAGAAAUGAACAAAGAAAAUCUGGGCCAGGCAGGCGUCAAAAGAAAUAGUCUUGCGCUCAACCAGAAAGUCUGUAAUCAUUAUAAGGGUA belongs 1.2. To GUUAACGGUCAUAGGCCAUGGAAACUAGGAGCACCAUUUCGCUGCCAGUGAAGAAAUGAACAAAGAAAAUCUGGGCCAGGCAGGCUUCAAUAGAAAUAGUCUUGCGCUCAACCAGAAAGUCUGUAAUCAUUUUAAGGGUA belongs 1.77. For GUUAACGGUCAUAGGCCAUGGAAACUAGGAGCACCAUUUCGCUGCCAGUGAAGAAAUGAACAAAGAAAAUCUGGGCCAGGCAGGCGUCAAAAGAAAUAGUCUUGCGCUCAACCAGAAAGUCUGUAAUCAUCUUAAGGGUA the value was 1.23.
